{"source": "the supplement of paper PMC9112550", "about": "“Optimization of the antimicrobial peptide Bac7 by deep mutational scanning” (BMC Biology, 2022);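 further: peptides expressed intracellularly from a pBAD plasmid library in pooled LB shake-flask culture, induced with 0.3% L-arabinose, DNA abundance read by NGS, three biological replicates, DESeq2 with apeglm shrinkage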"}
{"tested_on": "Escherichia coli TOP10", "test": "shrunken log2 fold change of peptide-encoding DNA abundance (4.5 h post-induction vs induction); higher = less antimicrobial activity (less host growth inhibition)", "conditions": "time post-induction: 4.5 h; library: site-saturation at positions 5, 18, 19, 20"}
{"sequence": "RRIRNRPPRLPRPRPRPITQPRP", "shrunken log2 fold change": -0.187}
{"sequence": "RRIRQRPPRLPRPRPRPRSYPRP", "shrunken log2 fold change": -0.286}
{"sequence": "RRIRGRPPRLPRPRPRPLAWPRP", "shrunken log2 fold change": 1.43}
{"sequence": "RRIRVRPPRLPRPRPRPDPEPRP", "shrunken log2 fold change": -0.0984}
{"sequence": "RRIRWRPPRLPRPRPRPGFRPRP", "shrunken log2 fold change": 0.221}
{"sequence": "RRIRCRPPRLPRPRPRPNFLPRP", "shrunken log2 fold change": -0.265}
{"sequence": "RRIRGRPPRLPRPRPRPITRPRP", "shrunken log2 fold change": 0.133}
{"sequence": "RRIRQRPPRLPRPRPRPWMAPRP", "shrunken log2 fold change": -0.147}
{"sequence": "RRIRLRPPRLPRPRPRPIMDPRP", "shrunken log2 fold change": -0.0403}
{"sequence": "RRIRRRPPRLPRPRPRPRCEPRP", "shrunken log2 fold change": 0.342}
{"sequence": "RRIRWRPPRLPRPRPRPCISPRP", "shrunken log2 fold change": 0.169}
{"sequence": "RRIRQRPPRLPRPRPRPWLAPRP", "shrunken log2 fold change": 0.136}
{"sequence": "RRIRHRPPRLPRPRPRPNTEPRP", "shrunken log2 fold change": -0.038}
{"sequence": "RRIRNRPPRLPRPRPRPQMAPRP", "shrunken log2 fold change": -0.23}
{"sequence": "RRIRHRPPRLPRPRPRPYNPPRP", "shrunken log2 fold change": -1.07}
{"sequence": "RRIRIRPPRLPRPRPRPMCYPRP", "shrunken log2 fold change": -1}
{"sequence": "RRIRCRPPRLPRPRPRPKWKPRP", "shrunken log2 fold change": 0.329}
{"sequence": "RRIRIRPPRLPRPRPRPCAFPRP", "shrunken log2 fold change": -0.1}
{"sequence": "RRIRARPPRLPRPRPRPWRGPRP", "shrunken log2 fold change": 0.39}
{"sequence": "RRIRYRPPRLPRPRPRPETPPRP", "shrunken log2 fold change": 0.156}
{"sequence": "RRIRKRPPRLPRPRPRPQLHPRP", "shrunken log2 fold change": 0.0197}
{"sequence": "RRIRPRPPRLPRPRPRPFAWPRP", "shrunken log2 fold change": 0.169}
{"sequence": "RRIRVRPPRLPRPRPRPDRGPRP", "shrunken log2 fold change": -0.0555}
{"sequence": "RRIRNRPPRLPRPRPRPGPAPRP", "shrunken log2 fold change": 0.627}
{"sequence": "RRIRIRPPRLPRPRPRPNPRPRP", "shrunken log2 fold change": -0.225}
{"sequence": "RRIRPRPPRLPRPRPRPTAWPRP", "shrunken log2 fold change": 0.666}
{"sequence": "RRIRNRPPRLPRPRPRPHCNPRP", "shrunken log2 fold change": -0.196}
{"sequence": "RRIRARPPRLPRPRPRPHCMPRP", "shrunken log2 fold change": 0.19}
{"sequence": "RRIRFRPPRLPRPRPRPGPFPRP", "shrunken log2 fold change": 0.14}
{"sequence": "RRIRHRPPRLPRPRPRPYRCPRP", "shrunken log2 fold change": 0.0121}
{"sequence": "RRIRKRPPRLPRPRPRPRYTPRP", "shrunken log2 fold change": -0.113}
{"sequence": "RRIRKRPPRLPRPRPRPKCKPRP", "shrunken log2 fold change": 0.545}
{"sequence": "RRIRQRPPRLPRPRPRPPWPPRP", "shrunken log2 fold change": 0.429}
{"sequence": "RRIRGRPPRLPRPRPRPSWIPRP", "shrunken log2 fold change": -0.0436}
{"sequence": "RRIRMRPPRLPRPRPRPEWPPRP", "shrunken log2 fold change": 0.0994}
{"sequence": "RRIRARPPRLPRPRPRPQQVPRP", "shrunken log2 fold change": 0.0996}
{"sequence": "RRIRLRPPRLPRPRPRPYECPRP", "shrunken log2 fold change": -0.352}
{"sequence": "RRIRTRPPRLPRPRPRPQWCPRP", "shrunken log2 fold change": -0.0353}
{"sequence": "RRIRLRPPRLPRPRPRPRERPRP", "shrunken log2 fold change": 0.612}
{"sequence": "RRIRMRPPRLPRPRPRPRIEPRP", "shrunken log2 fold change": -0.0903}
{"sequence": "RRIRMRPPRLPRPRPRPFALPRP", "shrunken log2 fold change": 0.0192}
{"sequence": "RRIRRRPPRLPRPRPRPNPPPRP", "shrunken log2 fold change": 0.451}
{"sequence": "RRIRERPPRLPRPRPRPLWPPRP", "shrunken log2 fold change": 0.0539}
{"sequence": "RRIRMRPPRLPRPRPRPYKTPRP", "shrunken log2 fold change": 0.0261}
{"sequence": "RRIRHRPPRLPRPRPRPMEHPRP", "shrunken log2 fold change": -0.337}
{"sequence": "RRIRWRPPRLPRPRPRPMGVPRP", "shrunken log2 fold change": -0.00743}
{"sequence": "RRIRPRPPRLPRPRPRPQKDPRP", "shrunken log2 fold change": -0.132}
{"sequence": "RRIRCRPPRLPRPRPRPNICPRP", "shrunken log2 fold change": -0.488}
{"sequence": "RRIRMRPPRLPRPRPRPGDQPRP", "shrunken log2 fold change": 1.13}
{"sequence": "RRIRYRPPRLPRPRPRPQDVPRP", "shrunken log2 fold change": -0.103}
{"sequence": "RRIRKRPPRLPRPRPRPVWYPRP", "shrunken log2 fold change": 0.0528}
{"sequence": "RRIRERPPRLPRPRPRPSWRPRP", "shrunken log2 fold change": -0.0751}
{"sequence": "RRIRPRPPRLPRPRPRPHYPPRP", "shrunken log2 fold change": -0.0221}
{"sequence": "RRIRERPPRLPRPRPRPGALPRP", "shrunken log2 fold change": 0.122}
{"sequence": "RRIRDRPPRLPRPRPRPCFHPRP", "shrunken log2 fold change": -0.336}
{"sequence": "RRIRCRPPRLPRPRPRPDLVPRP", "shrunken log2 fold change": -0.0994}
{"sequence": "RRIRHRPPRLPRPRPRPAGSPRP", "shrunken log2 fold change": -0.0875}
{"sequence": "RRIRVRPPRLPRPRPRPPQEPRP", "shrunken log2 fold change": 0.177}
{"sequence": "RRIRLRPPRLPRPRPRPCMDPRP", "shrunken log2 fold change": -0.351}
{"sequence": "RRIRGRPPRLPRPRPRPMHTPRP", "shrunken log2 fold change": 1.25}
{"sequence": "RRIRGRPPRLPRPRPRPAARPRP", "shrunken log2 fold change": 1.16}
{"sequence": "RRIRSRPPRLPRPRPRPSFSPRP", "shrunken log2 fold change": -0.351}
{"sequence": "RRIRFRPPRLPRPRPRPNCSPRP", "shrunken log2 fold change": -0.498}
{"sequence": "RRIRTRPPRLPRPRPRPALRPRP", "shrunken log2 fold change": 0.398}
{"sequence": "RRIRNRPPRLPRPRPRPGRDPRP", "shrunken log2 fold change": 0.366}
{"sequence": "RRIRVRPPRLPRPRPRPINTPRP", "shrunken log2 fold change": -1.07}
{"sequence": "RRIRSRPPRLPRPRPRPDYWPRP", "shrunken log2 fold change": 0.0977}
{"sequence": "RRIRRRPPRLPRPRPRPKLKPRP", "shrunken log2 fold change": 0.211}
{"sequence": "RRIRVRPPRLPRPRPRPSAQPRP", "shrunken log2 fold change": 0.0391}
{"sequence": "RRIRVRPPRLPRPRPRPWSAPRP", "shrunken log2 fold change": -0.135}
{"sequence": "RRIRCRPPRLPRPRPRPIFAPRP", "shrunken log2 fold change": 0.373}
{"sequence": "RRIRKRPPRLPRPRPRPYYPPRP", "shrunken log2 fold change": -0.227}
{"sequence": "RRIRTRPPRLPRPRPRPGPQPRP", "shrunken log2 fold change": 0.0198}
{"sequence": "RRIRARPPRLPRPRPRPSPAPRP", "shrunken log2 fold change": 0.616}
{"sequence": "RRIRKRPPRLPRPRPRPCLFPRP", "shrunken log2 fold change": 0.0241}
{"sequence": "RRIRRRPPRLPRPRPRPQIYPRP", "shrunken log2 fold change": -0.1}
{"sequence": "RRIRERPPRLPRPRPRPQADPRP", "shrunken log2 fold change": -0.171}
{"sequence": "RRIRIRPPRLPRPRPRPPAYPRP", "shrunken log2 fold change": -0.384}
{"sequence": "RRIRCRPPRLPRPRPRPPDVPRP", "shrunken log2 fold change": 0.156}
{"sequence": "RRIRNRPPRLPRPRPRPCYHPRP", "shrunken log2 fold change": -0.0967}
{"sequence": "RRIRARPPRLPRPRPRPEYIPRP", "shrunken log2 fold change": 0.0332}
{"sequence": "RRIRYRPPRLPRPRPRPKTNPRP", "shrunken log2 fold change": -0.516}
{"sequence": "RRIRMRPPRLPRPRPRPSKMPRP", "shrunken log2 fold change": -0.0315}
{"sequence": "RRIRWRPPRLPRPRPRPKSRPRP", "shrunken log2 fold change": -0.0202}
{"sequence": "RRIRLRPPRLPRPRPRPFKVPRP", "shrunken log2 fold change": 0.0321}
{"sequence": "RRIRFRPPRLPRPRPRPDLQPRP", "shrunken log2 fold change": -0.0778}
{"sequence": "RRIRCRPPRLPRPRPRPKGPPRP", "shrunken log2 fold change": 0.348}
{"sequence": "RRIRMRPPRLPRPRPRPVYHPRP", "shrunken log2 fold change": -0.435}
{"sequence": "RRIRHRPPRLPRPRPRPVNHPRP", "shrunken log2 fold change": -0.361}
{"sequence": "RRIRWRPPRLPRPRPRPVGHPRP", "shrunken log2 fold change": 0.243}
{"sequence": "RRIRTRPPRLPRPRPRPYHCPRP", "shrunken log2 fold change": 0.0119}
{"sequence": "RRIRARPPRLPRPRPRPGNAPRP", "shrunken log2 fold change": 0.73}
{"sequence": "RRIRERPPRLPRPRPRPQIRPRP", "shrunken log2 fold change": 0.0242}
{"sequence": "RRIRTRPPRLPRPRPRPPWNPRP", "shrunken log2 fold change": -0.288}
{"sequence": "RRIRKRPPRLPRPRPRPVSKPRP", "shrunken log2 fold change": 0.128}
{"sequence": "RRIRKRPPRLPRPRPRPSDQPRP", "shrunken log2 fold change": 0.0938}
{"sequence": "RRIRKRPPRLPRPRPRPCTTPRP", "shrunken log2 fold change": -0.132}
{"sequence": "RRIRHRPPRLPRPRPRPIKDPRP", "shrunken log2 fold change": -0.299}
{"sequence": "RRIRPRPPRLPRPRPRPGRWPRP", "shrunken log2 fold change": 0.551}
{"sequence": "RRIRCRPPRLPRPRPRPRFWPRP", "shrunken log2 fold change": 0.167}
{"sequence": "RRIRKRPPRLPRPRPRPSVKPRP", "shrunken log2 fold change": -0.358}
{"sequence": "RRIRFRPPRLPRPRPRPVDQPRP", "shrunken log2 fold change": 0.0138}
{"sequence": "RRIRPRPPRLPRPRPRPWNMPRP", "shrunken log2 fold change": -0.189}
{"sequence": "RRIRMRPPRLPRPRPRPVAMPRP", "shrunken log2 fold change": 0.57}
{"sequence": "RRIRIRPPRLPRPRPRPGIWPRP", "shrunken log2 fold change": -0.015}
{"sequence": "RRIRRRPPRLPRPRPRPTRRPRP", "shrunken log2 fold change": 0.853}
{"sequence": "RRIRFRPPRLPRPRPRPHCHPRP", "shrunken log2 fold change": -0.59}
{"sequence": "RRIRLRPPRLPRPRPRPNYTPRP", "shrunken log2 fold change": -0.91}
{"sequence": "RRIRPRPPRLPRPRPRPNAQPRP", "shrunken log2 fold change": 0.0626}
{"sequence": "RRIRARPPRLPRPRPRPCCCPRP", "shrunken log2 fold change": 0.689}
{"sequence": "RRIRVRPPRLPRPRPRPMHDPRP", "shrunken log2 fold change": -0.134}
{"sequence": "RRIRCRPPRLPRPRPRPESQPRP", "shrunken log2 fold change": -0.0239}
{"sequence": "RRIRKRPPRLPRPRPRPLMSPRP", "shrunken log2 fold change": 0.0201}
{"sequence": "RRIRTRPPRLPRPRPRPHFSPRP", "shrunken log2 fold change": 0.0329}
{"sequence": "RRIRARPPRLPRPRPRPGMIPRP", "shrunken log2 fold change": 0.237}
{"sequence": "RRIRNRPPRLPRPRPRPFSAPRP", "shrunken log2 fold change": -0.264}
{"sequence": "RRIRLRPPRLPRPRPRPPNLPRP", "shrunken log2 fold change": -0.321}
{"sequence": "RRIRQRPPRLPRPRPRPGEVPRP", "shrunken log2 fold change": -0.102}
{"sequence": "RRIRSRPPRLPRPRPRPFTVPRP", "shrunken log2 fold change": -0.0157}
{"sequence": "RRIRERPPRLPRPRPRPGDWPRP", "shrunken log2 fold change": 0.212}
{"sequence": "RRIRKRPPRLPRPRPRPAFNPRP", "shrunken log2 fold change": -0.169}
{"sequence": "RRIRRRPPRLPRPRPRPWAKPRP", "shrunken log2 fold change": 0.0786}
{"sequence": "RRIRARPPRLPRPRPRPPKLPRP", "shrunken log2 fold change": 0.683}
{"sequence": "RRIRKRPPRLPRPRPRPRCWPRP", "shrunken log2 fold change": 0.931}
{"sequence": "RRIRERPPRLPRPRPRPVISPRP", "shrunken log2 fold change": -0.145}
